From patent publication US20040072207A1 (WHITEHEAD INSTITUTE FOR BIOMEDICAL RESEARCH, published 2004)
Where a chain is given by its changes, count along the chain named. Each block holds one binder with its values, some of them ahead of it.

Columns and labels:
[1] = target: T1, mTOR (mammalian target of rapamycin), endogenous protein of human cell lines (human, UniProt P42345 1-2549); assay: co-IP from transfected HEK293T cells, western blot (FIG. 6B, 8D)
[2] = target: T1, mTOR (mammalian target of rapamycin), …; assay: anti-HA immunoprecipitates from transfected HEK293T cells, mTOR western blot (FIG. 6B)
Protocol: 3 million HEK293T cells in 6-cm dishes were transfected with plasmid constructs and amounts indicated in the Figure legends using the Lipofectamine 2000 transfection reagent (Life Technology). 24 hours after DNA addition, cells were rinsed once with PBS and lysed in 300 μl of ice-cold Buffer B. Immune complexes were prepared from cleared supernatants using 3 μg polyclonal anti-myc or monoclonal anti-HA antibodies and 20 μl of a 50% slurry protein G-Sepharose. After a 3 hour incubation, immuneprecipitates were washed six times with Buffer B and twice with Wash Buffer 2. Bound proteins were eluted in 1× sample buffer, and mTOR or HA- or myc-tagged proteins were detected by immunoblotting as described (Burnett et al., PNAS 95:1432-143 (1998)).

binding result [1]: no binding
B1: HA-raptor mut1 (194YDC196-AAA) (other, not shown: small tags and cut ends)
chain: MESEMLQSPLLGLGEEDEADLTDWNLPLAFMKKRHCEKIEGSKSLAQSWRMKDRMKTVSVALVLCLNVGVDPPDVVKTTPCARLECWIDPLSMGPQKALETIGANLQKQYENWQPRARYKQSLDPTVDEVKKLCTSLRRNAKEERVLFHYNGHGVPRPTVNGEVWVFNKNYTQYIPLSIYDLQTWMGSPSIFVAAASNAGLIVKSFKQFALQREQELEVAAINPNHPLAQMPLPPSMKNCIQLAACEATELLPMIPDLPADLFTSCLTTPIKIALRWFCMQKCVSLVPGVTLDLIEKIPGRLNDRRTPLGELNWIFTAITDTIAWNVLPRDLFQKLFRQDLLVASLFRNFLLAERIMRSYNCTPVSSPRLPPTYMHAMWQAWDLAVDICLSQLPTIIEEGTAFRHSPFFAEQLTAFQVWLTMGVENRNPPEQLPIVLQVLLSQVHRLRALDLLGRFLDLGPWAVSLALSVGIFPYVLKLLQSSARELRPLLVFIWAKILAVDSSCQADLVKDNGHKYFLSVLADPYMPAEHRTMTAFILAVIVNSYHTGQEACLQGNLIAICLEQLNDPHPLLRQWVAICLGRIWQNFDSARWCGVRDSAHEKLYSLLSDPIPEVRCAAVFALGTFVGNSAERTDHSTTIDHNVAMMLAQLVSDGSPMVRKELVVALSHLVVQYESNFCTVALQFIEEEKNYALPSPATTEGGSLTPVRDSPCTPRLRSVSSYGNIRAVATARSLNKSLQNLSLTEESGGAVAFSPGNLSTSSSASSTLGSPENEEHILSFETIDKMRRASSYSSLNSLIGVSFNSVYTQIWRVLLHLAADPYPEVSDVAMKVLNSIAYKATVNARPQRVLDTSSLTQSAPASPTNKGVHIHQAGGSPPASSTSSSSLTNDVAKQPVSRDLPSGRPGTTGPAGAQYTPHSHQFPRTRKMFDKGPEQTADDADDAAGHKSFISATVQTGFCDWSARYFAQPVMKIPEEHDLESQIRKEREWRFLRNSRVRRQAQQVIQKGITRLDDQIFLNRNPGVPSVVKFHPFTPCIAVADKDSICFWDWEKGEKLDYFHNGNPRYTRVTAMEYLNGQDCSLLLTATDDGAIRVWKNFADLEKNPEMVTAWQGLSDMLPTTRGAGMVVDWEQETGLLMSSGDVRIVRIWDTDREMKVQDIPTGADSCVTSLSCDSHRSLIVAGLGDGSIRVYDRRMALSECRVMTYREHTAWVVKASLQKRPDGHIVSVSVNGDVRIFDPRMPESVNVLQIVKGLTALDIHPQADLIACGSVNQFTAIYNSSGELINNIKYYDGFMGQRVGAISCLAFHPHWPHLAVGSNDYYISVYSVEKRVR
notes: also called mutant 1

binding result [2]: binds
B2: HA-raptor mut 7 (738SLQN741-PAAA) (other, not shown: small tags and cut ends)
chain: B1 chain with A194Y, A195D, A196C, S738P, L739A, Q740A, N741A
notes: also called mutant 7

binding result [2]: no binding
B3: HA-raptor mut2 (261DLF263-AAA) (other, not shown: small tags and cut ends)
chain: B1 chain with A194Y, A195D, A196C, D261A, L262A, F263A

binding result [2]: no binding
B4: HA-raptor mut3 (313NWIF316-AAAA) (other, not shown: small tags and cut ends)
chain: B1 chain with A194Y, A195D, A196C, N313A, W314A, I315A, F316A

binding result [2]: no binding
B5: HA-raptor mut 9 (1191RVYDRR1196-DAAADD) (other, not shown: small tags and cut ends)
chain: B1 chain with A194Y, A195D, A196C, R1191D, V1192A, Y1193A, D1194A, R1195D, R1196D
